# From patent US20240398951A1 (WISTAR INSTITUTE OF ANATOMY AND BIOLOGY, published 2024)
# T1: human follicle stimulating hormone receptor (FSHR) (human, UniProt P23945 18-695)
# T1 sequence (looked up): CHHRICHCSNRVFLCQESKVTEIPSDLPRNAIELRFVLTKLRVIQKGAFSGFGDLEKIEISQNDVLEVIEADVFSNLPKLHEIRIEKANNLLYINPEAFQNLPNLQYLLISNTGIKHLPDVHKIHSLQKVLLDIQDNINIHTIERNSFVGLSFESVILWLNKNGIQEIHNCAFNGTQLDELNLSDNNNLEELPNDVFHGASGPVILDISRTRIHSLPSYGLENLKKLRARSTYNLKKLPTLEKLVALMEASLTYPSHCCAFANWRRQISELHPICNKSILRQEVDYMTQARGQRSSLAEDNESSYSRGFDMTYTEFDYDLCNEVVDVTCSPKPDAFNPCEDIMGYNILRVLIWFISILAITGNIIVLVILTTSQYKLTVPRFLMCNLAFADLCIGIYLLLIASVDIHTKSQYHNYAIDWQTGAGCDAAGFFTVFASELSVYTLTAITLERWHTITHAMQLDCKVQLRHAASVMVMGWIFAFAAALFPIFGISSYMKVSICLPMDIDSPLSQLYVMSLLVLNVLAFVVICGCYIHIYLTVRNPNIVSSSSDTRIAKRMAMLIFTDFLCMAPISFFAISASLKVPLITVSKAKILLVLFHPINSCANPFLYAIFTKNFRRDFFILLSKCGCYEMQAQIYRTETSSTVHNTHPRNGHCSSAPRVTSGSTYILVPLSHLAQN
# B1: D2AP11-TCE (FSHRxCD3 DNA encoded bispecific T cell engager) (bispecific antibody)
# chain: DIQMTQSPSSLSASVGDRVTISCRASESVDNYGISFLNWFQQKPGKAPKLLIYAASNQRSGVPSRFSGSGSGTDFTLTISSLQPEDFATYFCQQSKEVPWTFGQGTKVEIKRGGGGSGGGGSGGGGSEVQLVESGGGLVQPGGSLRLSCSFSGFSLSTSGMGVGWIRQAPGKGLEWVAHIWWDDDKRYNPALKSRFTLSVDRSKNTLYLQMNSLRAEDTATYYCVQINYGNYRFDNWGHGTLVTVSSGGGGSEVQLVESGGGLVQPGGSLRLSCAASGYSFTGYTMNWVRQAPGKGLEWVALINPYKGVSTYNQKFKDRFTISVDKSKNTAYLQMNSLRAEDTAVYYCARSGYYGDSDWYFDVWGQGTLVTVSSGGGGSGGGGSGGGGSDIQMTQSPSSLSASVGDRVTITCRASQDIRNYLNWYQQKPGKAPKLLIYYTSRLESGVPSRFSGSGSGTDYTLTISSLQPEDFATYYCQQGNTLPWTFGQGTKVEIKSS
# Target: T1, human follicle stimulating hormone …
# Assay: cell-based or functional assay
binder,measurement,value
B1,"EC50 of dose dependent killing of OVCAR3 cells (xCELLigence, human PBMCs/T cells)",0.0159 µg/mL
same,"EC50 of dose dependent killing of OVISE-FSHR cells (xCELLigence, human PBMCs/T cells)",0.0247 µg/mL
same,EC50 of killing of OVCAR4 cells in presence of human PBMCs (xCELLigence),0.0113 µg/mL
same,potency of killing of OVCAR4 cells compared to the anti-FSHR ab D2AP11,~1000 fold
